Experimental data published in patent publication US20060216716A1, “Immunologic activity measures for t helper on-associated conditions” (priority 2003, published 2006).

Tests used:
CXCL9 = assay: activated CXCL9 levels (interferon-gamma and tumor necrosis factor-alpha stimulation) in Crohn's Disease subjects by medication usage; assay type: in vivo; conditions: disease active or in remission, FIG. 7
Description: (§1) Following informed consent, a heparinized whole blood sample. […] Finally, and the plate is again washed repeatedly.
In a subsequent experiment, a combination of stimulating cytokines (interferon-gamma and tumor necrosis factor-alpha) was administered to Crohn's Disease patients and the effects of medication studied.

CXCL10 = conditions: within individual Crohn's Disease subjects; interferon-gamma activation; FIG. 4
Description: A pro-inflammatory stimulant, e.g., interferon-gamma, is added at a concentration of approximately 1000 units/cc and incubated at 37° C. […] At an appropriate time interval, e.g., 3 hours, the samples are centrifuged to allow collection of the plasma, or serum (the non-cell containing portion of the blood). […] In a standard sandwich ELISA detection, the plasma/serum is allowed to incubate with a capture antibody. Then, the sample is removed, the plate is washed multiple times and an antibody labeled with an enzyme is applied (detection antibody). Finally, and the plate is again washed repeatedly. Depending on the enzyme used for the detection antibody, a color change becomes evident over time after addition of the proper enzyme substrate, which can then be detected using specified light wavelength measurements. The light absorbance can be measured using a standard ELISA plate reader, which in turn produces a number. By comparing this number to a standard curve for CXCL10, a quantified amount of CXCL10 can be determined, or alternatively, the absorbance number itself may be used.

WBC [1] = assay: ex vivo whole blood stimulation, CXCL10 release by WBC (ELISA); assay type: cell-based; conditions: 3 hours post stimulation; subjects with Crohn's Disease or Ulcerative Colitis; FIG. 1
Source text: as §1
This response also occurs in normal individuals as well.

WBC [2] = assay: ex vivo blood stimulation, CXCL9 levels; assay type: cell-based
Source text: as §1
The effects of different forms of activation and a combination of activating cytokines on CXCL9 levels in Crohn's Disease subjects was also studied.

With `S=c1nc[nH]c2nc[nH]c12` [6 MP] as the molecule, how does the “effect of medication usage on activated CXCL9 levels” value (CXCL9) read?
The value was “brought about a change”.

Which “effect of medication on activated CXCL10 levels over time” value (CXCL10) does the source give for azathioprine/6MP here?
Its value is “significant changes”.

B1: interferon-gamma (protein, UniProt P01579 24-161, looked up)
Interferon gamma: QDPYVKEAENLKKYFNAGHSDVADNGTLFLGILKNWKEESDRKIMQSQIVSFYFKLFKNFKDDQSIQKSVETIKEDMNVKFFNSNKKKRDDFEKLTNYSVTDLNVQRKAIHELIQVMAELSPAAKTGKRKRSQMLFRG
notes: pro-inflammatory stimulant cytokine added to the blood sample
B1 was tested. Which “CXCL10 response following stimulation” value (WBC [1]) did it give?
Its value is “a larger spread and an increase in the measurable values”.

What about the “serum CXCL9 concentration levels after stimulation” value (WBC [2]; Crohn's Disease subjects, FIG. 6) of the same molecule?
Its value is “increased”.

And the “serum CXCL9 concentration levels after stimulation” value (WBC [2]; Ulcerative Colitis subjects, active and inactive disease, FIG. 8)?
The value was “increased”.
